Reference: patent US20200199241A1 (Chugai, published 2020)
Changes are numbered by the printed parent chain. In names and notes the source's numbering stands. Where two headings read alike, the source gives them in different places. Each block holds one binder with its values, some of them ahead of it.

Assays:
[1] = biological target: T1, human FcRn (soluble human FcRn complexed with β2-microglobulin) (human, UniProt P61769 21-119, limits assumed); assay: SPR, antibody captured by Protein L, human FcRn as analyte, pH 7.0, 25 C
T1 construct: also called hFcRn

mouse FcγRI [2] = biological target: T2, mouse FcγRI (mouse, UniProt P26151 25-297); assay: SPR, antibody captured by Protein L, mouse FcγR as analyte, pH 7.4, 25 C
T2 construct: bought; also called mFcgRI; mFcgR 1
T2 sequence (looked up): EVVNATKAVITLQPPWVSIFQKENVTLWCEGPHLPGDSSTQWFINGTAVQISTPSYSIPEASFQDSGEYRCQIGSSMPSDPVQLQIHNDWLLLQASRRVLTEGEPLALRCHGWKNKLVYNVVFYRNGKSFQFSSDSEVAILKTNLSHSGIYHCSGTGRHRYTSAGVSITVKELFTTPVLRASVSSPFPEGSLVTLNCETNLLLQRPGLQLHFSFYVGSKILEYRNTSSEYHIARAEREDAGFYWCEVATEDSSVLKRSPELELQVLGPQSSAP

mouse FcγRIIb [3] = biological target: T3, mouse FcγRIIb (mouse, UniProt P08101 30-207, limits assumed); assay: as above
T3 construct: bought; also called mFcgRIIb; mFcgR IIb
T3 sequence (looked up): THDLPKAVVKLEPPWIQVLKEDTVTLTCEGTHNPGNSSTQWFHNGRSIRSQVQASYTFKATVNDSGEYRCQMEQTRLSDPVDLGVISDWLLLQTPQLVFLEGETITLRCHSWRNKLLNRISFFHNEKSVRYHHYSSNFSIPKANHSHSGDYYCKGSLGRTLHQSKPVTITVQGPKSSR

mouse FcγRIII [4] = biological target: T4, mouse FcγRIII (mouse, UniProt P08508 31-215); assay: as above
T4 construct: bought; also called mFcgRIII; mFcgR III
T4 sequence (looked up): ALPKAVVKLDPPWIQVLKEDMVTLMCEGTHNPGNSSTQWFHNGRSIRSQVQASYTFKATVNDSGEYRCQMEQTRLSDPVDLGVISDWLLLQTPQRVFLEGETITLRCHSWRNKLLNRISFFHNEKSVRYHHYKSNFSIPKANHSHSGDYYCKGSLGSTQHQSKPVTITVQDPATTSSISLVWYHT

mouse FcγRIV [5] = biological target: T5, mouse FcγRIV (mouse, UniProt A0A0B4J1G0 21-203); assay: as above
T5 construct: bought; also called mFcgRIV; mFcgR IV; the vendor's purification tag not given
T5 sequence: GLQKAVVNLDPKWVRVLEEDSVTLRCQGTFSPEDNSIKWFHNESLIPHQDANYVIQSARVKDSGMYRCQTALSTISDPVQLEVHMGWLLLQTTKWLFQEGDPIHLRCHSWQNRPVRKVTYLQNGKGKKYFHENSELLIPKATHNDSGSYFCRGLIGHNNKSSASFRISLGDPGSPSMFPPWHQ

[6] = biological target: T1, human FcRn (soluble human FcRn …); assay: SPR, antibody captured by Protein L, human FcRn as analyte, pH 7.0, 25 C; remark: listed apart in the source
human FcγRIIb [7] = biological target: T6, human FcγRIIb (human, UniProt P31994 43-217, limits assumed); assay: SPR, antibody captured by Protein L, human FcγR as analyte, pH 7.4, 25 C;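 also: biacore T100 or T200 with Protein L amine-coupled on a CM4 chip, FcγRs diluted in ACES saline with polysorbate 20, buffer-only injection as blank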
T6 construct: also called hFcgRIIb; FcγIIB
T6 sequence: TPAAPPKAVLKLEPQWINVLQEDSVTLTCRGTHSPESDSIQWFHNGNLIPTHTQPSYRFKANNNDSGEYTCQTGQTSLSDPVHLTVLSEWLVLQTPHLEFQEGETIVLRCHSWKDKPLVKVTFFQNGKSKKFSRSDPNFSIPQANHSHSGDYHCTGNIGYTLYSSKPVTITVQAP

human FcγRIIIa(V) = biological target: T7, human FcγRIIIa(V) (human, UniProt P08637 17-208, limits assumed); assay: as above
T7 construct: also called hFcgRIIIa(V); allotype V158
T7 sequence (P08637 other isoform, or with tags, fused parts or gaps limits assumed): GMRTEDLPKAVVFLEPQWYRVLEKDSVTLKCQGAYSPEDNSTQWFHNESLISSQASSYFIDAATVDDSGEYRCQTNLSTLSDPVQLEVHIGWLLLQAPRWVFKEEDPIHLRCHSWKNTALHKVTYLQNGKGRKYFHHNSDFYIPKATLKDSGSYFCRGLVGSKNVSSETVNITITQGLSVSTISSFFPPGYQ

human FcγRIa = biological target: T8, human FcγRIa (human, UniProt P12314 16-292, limits assumed); assay: as above
T8 construct: also called hFcgRIa; hFcgRI
T8 sequence (P12314 16-292 limits assumed): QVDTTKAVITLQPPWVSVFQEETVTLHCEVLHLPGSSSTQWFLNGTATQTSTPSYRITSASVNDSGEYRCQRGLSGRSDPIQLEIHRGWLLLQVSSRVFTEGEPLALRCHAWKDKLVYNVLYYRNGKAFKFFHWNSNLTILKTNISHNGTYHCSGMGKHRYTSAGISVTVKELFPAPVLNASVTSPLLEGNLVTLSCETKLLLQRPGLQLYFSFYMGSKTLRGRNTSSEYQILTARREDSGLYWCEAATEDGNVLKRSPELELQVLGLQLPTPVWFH

human FcγRIIa(R) = biological target: T9, human FcγRIIa(R) (human, UniProt P12318 36-217); assay: as above
T9 construct: also called hFcgRIIa(R); FcγRIIa type R
T9 chain: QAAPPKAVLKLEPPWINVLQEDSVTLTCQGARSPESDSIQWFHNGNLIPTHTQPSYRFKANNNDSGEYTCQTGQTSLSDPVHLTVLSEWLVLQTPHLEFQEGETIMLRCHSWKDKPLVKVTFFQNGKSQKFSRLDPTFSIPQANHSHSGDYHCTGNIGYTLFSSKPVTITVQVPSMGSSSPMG

human FcγRIIa(H) = biological target: T10, human FcγRIIa(H) (human, UniProt P12318 36-217); assay: as above
T10 construct: also called hFcgRIIa(H); FcγRIIa type H
T10 sequence: T9 chain with R133H

human FcγRIIb [8] = biological target: T6, human FcγRIIb; assay: SPR (Biacore), amount of FcγRIIb bound to the captured antibody, relative to GpH7-B3/GpL16-k0 = 100
mouse FcγRI [9] = biological target: T2, mouse FcγRI; assay: SPR, antibody captured by Protein L, mouse FcγR as analyte, pH 7.4, 25 C; remark: listed apart in the source
mouse FcγRIIb [10] = biological target: T3, mouse FcγRIIb; assay: as above; remark: listed apart in the source
mouse FcγRIII [11] = biological target: T4, mouse FcγRIII; assay: as above; remark: listed apart in the source
mouse FcγRIV [12] = biological target: T5, mouse FcγRIV; assay: as above; remark: listed apart in the source
human FcγRIIb [13] = biological target: T11, human FcγRIIb (human, UniProt P31994 43-217, limits assumed); assay: SPR (Biacore); ratio against IgG1
T11 construct: also called FcγIIB
T11 sequence: T6 sequence

human FcγRIIb [14] = biological target: T11, human FcγRIIb; assay: SPR (Biacore), antibody captured, FcγR as analyte
human FcγRIIb [15] = biological target: T11, human FcγRIIb; assay: SPR (Biacore); ratio against IgG1; remark: listed apart in the source
human FcγRIIb [16] = biological target: T11, human FcγRIIb; assay: SPR (Biacore), antibody captured, FcγR as analyte; remark: listed apart in the source

B3: G237F (antibody)
heavy: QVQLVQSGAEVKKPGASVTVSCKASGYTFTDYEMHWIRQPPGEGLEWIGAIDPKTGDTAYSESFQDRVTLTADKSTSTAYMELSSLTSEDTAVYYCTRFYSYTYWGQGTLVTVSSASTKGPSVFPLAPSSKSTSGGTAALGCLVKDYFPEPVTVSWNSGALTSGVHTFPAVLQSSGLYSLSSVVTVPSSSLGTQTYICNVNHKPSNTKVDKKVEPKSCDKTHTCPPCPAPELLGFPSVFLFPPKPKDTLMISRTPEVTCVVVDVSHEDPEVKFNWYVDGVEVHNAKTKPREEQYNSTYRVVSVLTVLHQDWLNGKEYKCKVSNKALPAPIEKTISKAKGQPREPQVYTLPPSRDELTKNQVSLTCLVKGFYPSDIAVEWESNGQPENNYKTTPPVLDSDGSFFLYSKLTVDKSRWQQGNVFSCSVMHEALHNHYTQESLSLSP
light: DIVMTQSPLSLPVTPGEPASISCQASESLVHSNRNTYLHWYLQKPGQSPQLLIYKVSNRFSGVPDRFSGSGSGTDFTLKISRVEAEDVGVYYCSQNTHVPPTFGQGTKVEIERTVAAPSVFIFPPSDEQLKSGTASVVCLLNNFYPREAKVQWKVDNALQSGNSQESVTEQDSKDSTYSLSSTLTLSKADYEKHKVYACEVTHQGLSSPVTKSFNRGEC
notes: also called GpH7-B3 variant G237F/GpL16-k0; copies: 2 + 2
- binding result (human FcγRIIb [8]): binds

B8: IgG1-v2 (antibody)
heavy: not shown
light: DIQMTQSPSSLSASVGDRVTITCRASQDISSYLNWYQQKPGKAPKLLIYYTSRLHSGVPSRFSGSGSGTDFTFTISSLQPEDIATYYCQQGNTLPYTFGQGTKVEIK
notes: IL6R-G1d with L328E (EU numbering); also called L328E
- relative KD for FcγRIIb (KD for IgG1/KD for each variant) (human FcγRIIb [13]): 2.3
- Kd (human FcγRIIb [14]): 2300 nM

B9: IgG1-v5 (antibody)
heavy: QVQLQESGPGLVKPSETLSLTCAVSGHSISHDHAWSWVRQPPGEGLEWIGFISYSGITNYNPSLQGRVTISRDNSKNTLYLQMNSLRAEDTAVYYCARSLARTTAMDYWGEGTLVTVSSASTKGPSVFPLAPSSKSTSGGTAALGCLVKDYFPEPVTVSWNSGALTSGVHTFPAVLQSSGLYSLSSVVTVPSSSLGTQTYICNVNHKPSNTKVDKKVEPKSCDKTHTCPPCPAPELLGGDSVFLFPPKPKDTLMISRTPEVTCVVVDVEHEDPEVKFNWYVDGVEVHNAKTKPREEQYNSTYRVVSVLTVLHQDWLNGKEYKCKVSNKAFPAPIEKTISKAKGQPREPQVYTLPPSRDELTKNQVSLTCLVKGFYPSDIAVEWESNGQPENNYKTTPPVLDSDGSFFLYSKLTVDKSRWQQGNVFSCSVMHEALHNHYTQKSLSLSP
light: B8 light
notes: IL6R-G1d with P238D/S267E/L328F (EU numbering); The L chain is not restated for v5; also called IL6R-G1d-v5; P238D/S267E/L328F
- relative KD for FcγRIIb (KD for IgG1/KD for each variant) (human FcγRIIb [15]): 12
- Kd (human FcγRIIb [16]): 450 nM

B10: IgG1-v3 (antibody)
heavy: not shown
light: B8 light
notes: IL6R-G1d with S267E/L328F (EU numbering); also called S267E/L328F
- relative KD for FcγRIIb (KD for IgG1/KD for each variant) (human FcγRIIb [15]): 408
- Kd (human FcγRIIb [16]): 13 nM

B11: IgG1-v4 (antibody)
heavy: not shown
light: B8 light
notes: IL6R-G1d with P238D/L328E (EU numbering); also called IL6R-G1d-v4; P238D/L328E
- relative KD for FcγRIIb (KD for IgG1/KD for each variant) (human FcγRIIb [13]): 0.47
- Kd (human FcγRIIb [14]): 11000 nM

More lines, now with the values ahead:

- Kd [1]: 12 nM
- BINDING AMOUNT (RU) (mouse FcγRI [2]): 0.6 RU
- BINDING AMOUNT (RU) (mouse FcγRIIb [3]): -1.5 RU
- BINDING AMOUNT (RU) (mouse FcγRIII [4]): -12.9 RU
- BINDING AMOUNT (RU) (mouse FcγRIV [5]): 7.2 RU
- Kd [6]: 12 nM
- BINDING AMOUNT (RU) (human FcγRIIb [7]): 0.16 RU
- BINDING AMOUNT (RU) (human FcγRIIIa(V)): 3.64 RU
- BINDING AMOUNT (RU) (human FcγRIa): 0.31 RU
- BINDING AMOUNT (RU) (human FcγRIIa(R)): -0.27 RU
- BINDING AMOUNT (RU) (human FcγRIIa(H)): -0.02 RU
B1: antibody with VH3-IgG1-F1009 heavy chain and L(WT)-CK light chain (antibody)
heavy: QVQLQESGPGLVKPSETLSLTCAVSGHSISHDHAWSWVRQPPGEGLEWIGFISYSGITNYNPSLQGRVTISRDNSKNTLYLQMNSLRAEDTAVYYCARSLARTTAMDYWGEGTLVTVSSASTKGPSVFPLAPSSKSTSGGTAALGCLVKDYFPEPVTVSWNSGALTSGVHTFPAVLQSSGLYSLSSVVTVPSSSLGTQTYICNVNHKPSNTKVDKKVEPKSCDKTHTCPPCPAPELRGGPKVFLFPPKPKDVLYISRTPEVTCVVVDVSHEDPEVKFNWYVDGVEVHNAKTKPREEQYNSTYRVVSVLQPLHADWLNGKEYKCKVSNKALPAPIEKTISKAKGQPREPQVYTLPPSRDELTKNQVSLTCLVKGFYPSDIAVEWESNGQPENNYKTTPPVLDSDGSFFLYSKLTVDKSRWQQGNVFSCSVMHEALHYHVTQKSLSLSP
light: not shown
notes: L235R/S239K/T250V/M252Y/T307Q/V308P/Q311A/N434Y/Y436V; copies: 2 + 2

- Kd [6]: 14 nM
- BINDING AMOUNT (RU) (human FcγRIIb [7]): 0.74 RU
- BINDING AMOUNT (RU) (human FcγRIIIa(V)): -0.6 RU
- BINDING AMOUNT (RU) (human FcγRIa): 0.87 RU
- BINDING AMOUNT (RU) (human FcγRIIa(R)): -0.2 RU
- BINDING AMOUNT (RU) (human FcγRIIa(H)): -1.14 RU
B2: antibody with VH3-IgG1-F1327 heavy chain and L(WT)-CK light chain (antibody)
heavy: B1 heavy with L236A, R237A, K241S, N299A
light: not shown
notes: L234A/L235A/N297A on VH3-IgG1-F947; copies: 2 + 2

- binding result (human FcγRIIb [8]): binds
B4: L234Y (antibody)
heavy: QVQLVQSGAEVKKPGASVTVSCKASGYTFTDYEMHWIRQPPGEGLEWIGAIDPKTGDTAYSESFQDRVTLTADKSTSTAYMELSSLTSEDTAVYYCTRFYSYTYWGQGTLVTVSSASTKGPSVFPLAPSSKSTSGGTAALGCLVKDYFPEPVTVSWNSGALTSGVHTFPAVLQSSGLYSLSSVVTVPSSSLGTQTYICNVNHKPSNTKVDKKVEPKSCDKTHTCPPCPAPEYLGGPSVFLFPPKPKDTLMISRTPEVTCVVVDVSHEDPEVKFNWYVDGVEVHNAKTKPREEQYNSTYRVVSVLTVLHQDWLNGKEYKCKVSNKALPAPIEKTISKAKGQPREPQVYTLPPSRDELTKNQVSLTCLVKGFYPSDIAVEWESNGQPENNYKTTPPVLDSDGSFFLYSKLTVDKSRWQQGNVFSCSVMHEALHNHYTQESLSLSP
light: B3 light
notes: also called GpH7-B3 variant L234Y/GpL16-k0; copies: 2 + 2

- binding result (human FcγRIIb [8]): binds
B5: G237W (antibody)
heavy: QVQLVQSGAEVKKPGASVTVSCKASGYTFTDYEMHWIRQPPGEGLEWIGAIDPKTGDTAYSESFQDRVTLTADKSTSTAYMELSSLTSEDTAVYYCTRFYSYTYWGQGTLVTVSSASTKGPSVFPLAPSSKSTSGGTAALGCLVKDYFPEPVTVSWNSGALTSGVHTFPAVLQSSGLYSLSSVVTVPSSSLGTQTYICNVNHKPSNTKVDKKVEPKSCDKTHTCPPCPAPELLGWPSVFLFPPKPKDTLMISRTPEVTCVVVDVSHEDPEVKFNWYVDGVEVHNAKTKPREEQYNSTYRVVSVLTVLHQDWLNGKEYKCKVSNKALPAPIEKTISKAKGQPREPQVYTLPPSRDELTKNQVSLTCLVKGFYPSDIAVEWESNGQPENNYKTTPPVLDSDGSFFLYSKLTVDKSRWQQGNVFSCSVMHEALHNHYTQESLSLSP
light: B3 light
notes: also called GpH7-B3 variant G237W/GpL16-k0; copies: 2 + 2

- binding result (human FcγRIIb [8]): binds
B6: S239D (antibody)
heavy: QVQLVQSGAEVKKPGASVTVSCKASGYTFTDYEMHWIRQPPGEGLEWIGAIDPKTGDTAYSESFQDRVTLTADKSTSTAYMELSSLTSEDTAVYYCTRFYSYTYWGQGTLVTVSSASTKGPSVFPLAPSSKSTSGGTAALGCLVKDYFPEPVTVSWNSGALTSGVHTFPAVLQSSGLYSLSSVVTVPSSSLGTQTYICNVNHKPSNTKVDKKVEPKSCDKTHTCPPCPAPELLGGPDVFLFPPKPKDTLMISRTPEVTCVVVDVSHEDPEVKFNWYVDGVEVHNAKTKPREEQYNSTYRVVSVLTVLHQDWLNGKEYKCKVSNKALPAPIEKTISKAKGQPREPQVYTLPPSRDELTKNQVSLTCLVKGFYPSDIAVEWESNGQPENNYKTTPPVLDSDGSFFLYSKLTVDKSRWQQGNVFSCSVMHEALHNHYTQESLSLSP
light: B3 light
notes: also called GpH7-B3 variant S239D/GpL16-k0; copies: 2 + 2

- BINDING AMOUNT (RU) (mouse FcγRI [9]): -3 RU
- BINDING AMOUNT (RU) (mouse FcγRIIb [10]): -5.2 RU
- BINDING AMOUNT (RU) (mouse FcγRIII [11]): -18.7 RU
- BINDING AMOUNT (RU) (mouse FcγRIV [12]): -8.9 RU
B7: antibody with mPM1H-mIgG1-mF40 heavy chain (antibody)
heavy: DVQLQESGPVLVKPSQSLSLTCTVTGYSITSDHAWSWIRQFPGNKLEWMGYISYSGITTYNPSLKSRISITRDTSKNQFFLQLNSVTTGDTSTYYCARSLARTTAMDYWGQGTSVTVSSAKTTPPSVYPLAPGSAAQTNSMVTLGCLVKGYFPEPVTVTWNSGSLSSGVHTFPAVLQSDLYTLSSSVTVPSSTWPSETVTCNVAHPASSTKVDKKIVPRDCGCKPCICTVKEVSKVFIFPPKPKDVLYITLEPKVTCVVVDISKDDPEVQFSWFVDDVEVHTAQTQPREEQFNSTFRSVSELPIMHQDWLNGKEFKCRVNSAAFPAPIEKTISKTKGRPKAPQVYTIPPPKEQMAKDKVSLTCMITDFFPEDITVEWQWNGQPAENYKNTQPIMDTDGSYFVYSKLNVQKSNWEAGNTFTCSVLHEGLHWHHTEKSLSHSPGK
light: not shown
notes: P235K/S239K/T252Y/T256E/N434W; also called mPM1-mIgG1-mF40; copies: 2 + 2
